Our source for the binding result and Kd values is PMC6396743, “Two membrane-bound transcription factors regulate expression of various type-IV-pili surface structures in Sulfolobus acidocaldarius”.

This data set deals with T1, ArnR1 (Sulfolobus acidocaldarius, UniProt Q4J9L2 1-269).
T1 sequence: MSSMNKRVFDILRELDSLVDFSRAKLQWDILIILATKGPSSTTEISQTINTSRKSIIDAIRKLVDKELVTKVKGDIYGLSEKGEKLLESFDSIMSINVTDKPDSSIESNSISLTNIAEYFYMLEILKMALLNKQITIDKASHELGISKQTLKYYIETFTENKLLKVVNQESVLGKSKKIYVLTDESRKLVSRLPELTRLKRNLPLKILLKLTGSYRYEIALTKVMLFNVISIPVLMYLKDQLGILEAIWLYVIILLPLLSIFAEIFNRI
The experiment in a line: MST; MST: 2.5 nM labeled dsDNA, 0.156-18 uM protein, 24 C, 10 min incubation; DNA annealed in 20 mM Tris/HCl pH 8, 200 mM NaCl, 0.05% DDM; protein in 20 mM Tris/HCl. The settings on record: protein: recombinant, tags: N-terminal His10.

The mark [1] stands for this setting: label: 5' Alexa Fluor 647, blunt.

B1: pupsX (dsDNA)
DNA 1: TCTCCCATATTACTATTGCCTATCTCGTTAATAGTATTTTC
DNA 2: GAAAATACTATTAACGAGATAGGCAATAGTAATATGGGAGA
Regarding B1, the binding result (label: Alexa Fluor 647, blunt) was “no binding”.

B2: pSaci_2122 (dsDNA)
DNA 1: ATAATTATTACTCAGCGTTTATAACGTTTAACATGTTAAAA
DNA 2: TTTTAACATGTTAAACGTTATAAACGCTGAGTAATAATTAT
Turning to B2, the binding result under setting [1] is reported as “no binding”.

B3: paapF (dsDNA)
DNA 1: GTCTAAAGCCATAAAGATGAGCTTATTTTCATAGATTTAAGT
DNA 2: ACTTAAATCTATGAAAATAAGCTCATCTTTATGGCTTTAGAC
For B3, the binding result under setting [1] is “no binding”.

B4: pflaB ArnR box-2 (dsDNA)
DNA 1: AACGTCGATCAGCAGTCGAA
DNA 2: TTTCGACTGCTGATCGACGTT
With B4, the binding result (label: 5' Alexa Fluor 647, 5' overhang 1 nt on strand 2 as printed) was “no binding”.

B5: pflaB ArnR box-1 (dsDNA)
DNA 1: ATTGTGATTTTTGGTCGAAG
DNA 2: CTTCGACCAAAAATCACAAT
With B5, under setting [1], the binding result was “no binding”.

B6: pflaB41 (dsDNA)
DNA 1: ACGTCGATCAGCAGTCGAAAAATTGTGATTTTTGGTCGAAG
DNA 2: CTTCGACCAAAAATCACAATTTTTCGACTGCTGATCGACGT
For the molecule B6, under setting [1], the dissociation constant (Kd) (commonly the free concentration of one partner at which half of the binding sites on the other are occupied at equilibrium, for simple one-to-one binding) came to 3.31 µM.
